Experimental findings from patent US20250177505A1, “CANCER VACCINE COMPRISING EPITOPE OF C-MET AND EPITOPE OF HIF1ALPHA, AND USE THEREOF” (KOREA UNIVERSITY RESEARCH AND BUSINESS FOUNDATION, priority 2022, published 2025) are described below.

“Also recorded” adds a separate entry of the source.

In one experiment the test system is M6-bone cells. Description: Western blot of IFN-γ-treated cells. The class given is cell-based, mouse. To be noted: 100 ng/ml IFN-γ, 18 hours. As to the method:
M6 and M6-bone cells were stimulated with 100 ng/ml recombinant mouse IFN-γ and cultured in a medium containing 1% FBS for 18 hours. The cells were lysed in a buffered mixture of a PRO-PREPTM protein extraction solution (iNtRON Biotechnology, 17081) and a phosphatase inhibitor cocktail (Gen DEPOT, p3200-001). Protein concentration was measured using the Bradford assay (Bio-rad, 500-0006, Hercules, CA, USA). 30 μg of the protein was separated by SDS-polyacrylamide gel electrophoresis and transferred to a PVDF membrane (10600023), and then the membrane was blocked with Tris-buffered saline containing 0.05% Tween 20 and 5% non-fat milk powder for 1 hour. The PVDF membrane was incubated overnight at 4° C. with primary antibodies. HIF1α (NB100-105, Novusbio), c-MET, Akt (Cat #9272), and p-Akt (Cat #9271) antibodies were purchased from Cell Signaling Technology (Beverly, MA, USA), and β-actin (Cat #A5316) was purchased from Sigma (Saint Louis, MO, USA). Subsequently, a horseradish peroxidase-conjugated secondary antibody was cultured at room temperature for 1 hour. Immunoreactive bands were detected with a chemiluminescent reagent (Cat #RPN2106).
A general note: A western blot detects proteins with antibodies after separation by electrophoresis.

Experiment [1] has as its system bone marrow monocytes (BMMs). Description: Osteoclastogenesis analysis in bone marrow monocytes. The class given is cell-based, C3(1)-Tag mice. To be noted: BMM with M-CSF 30 ng/mL, RANKL 100 ng/mL, IFN-γ 50, 100 ng/mL; vs positive control. As to the method:
Primary mouse bone marrow monocytes (BMMs) were isolated from the hind limb bones (two femurs and two tibiae) of 4 to 8 week-old C3(1)-Tag mice. The mouse BMMs were flushed into a 15 ml tube via 8 ml of a serum-free 2 mM EDTA α-MEM medium. A Lymphocyte Separation Medium (LSM; MP Biomedicals; Catalog No. 50494) was dispensed into a new tube, 8 ml of the flushed BMMs were gently added thereon and centrifuged at 1600 rpm for 20 minutes at room temperature. The isolated BMMs were inoculated at 3×10^5 cells/well in a 48-well plate with 0.5 mL of a medium per well and incubated in α-MEM containing 10% FBS and 1% antibiotics.
BMMs in a negative control group were treated with M-CSF (30 ng/mL), BMMs in a positive control group were treated with M-CSF and RANKL (100 ng/mL), and BMMs in an experimental group were stimulated by treatment with M-CSF, RANKL, and IFN-γ(50, 100 ng/mL). On days 1, 3, 5, and 7 of culture, the medium was replaced, and each experimental group was treated with M-CSF, RANKL, and IFN-γ. After 9 days of culture, staining was performed using a TRAP staining kit (KT-008, KAMIYA biomedical company, Seattle, WA, USA) after fixing the cells with 10% formalin. For each well, TRAP-positive (TRAP^+) multinucleated cells (TRAP^+ MNC) were counted. All the experiments were independently repeated three times.

B1: IFN-γ: recombinant mouse IFN-γ, key cytokine of T-helper type 1 immunity (protein, UniProt P01580 23-155, looked up)
Interferon gamma: HGTVIESLESLNNYFNSSGIDVEEKSLFLDIWRNWQKDGDMKILQSQIISFYLRLFEVLKDNQAISNNISVIESHLITTFFSNSKAKKDAFMSIAKFEVNNPQVQRQAFNELIRVVHQLLPESSLRKRKRSRC
B1: in the experiment with M6-bone cells, the “Expression of c-MET” value was “decreased” and the “Expression of p-Akt” value was “decreased”. Also, the osteoclastogenesis in vitro result in experiment [1] was “completely inhibited; also recorded: inhibits”.
